B1: Cy5-dT35 (ssDNA)
DNA: TTTTTTTTTTTTTTTTTTTTTTTTTTTTTTTTTTT
B2: Escherichia coli exonuclease I (ExoI) (enzyme)
chain: MMNDGKQQSTFLFHDYETFGTHPALDRPAQFAAIRTDSEFNVIGEPEVFYCKPADDYLPQPGAVLITGITPQEARAKGENEAAFAARIHSLFTVPKTCILGYNNVRFDDEVTRNIFYRNFYDPYAWSWQHDNSRWDLLDVMRACYALRPEGINWPENDDGLPSFRLEHLTKANGIEHSNAHDAMADVYATIAMAKLVKTRQPRLFDYLFTHRNKHKLMALIDVPQMKPLVHVSGMFGAWRGNTSWVAPLAWHPENRNAVIMVDLAGDISPLLELDSDTLRERLYTAKTDLGDNAAVPVKLVHINKCPVLAQANTLRPEDADRLGINRQHCLDNLKILRENPQVREKVVAIFAEAEPFTPSDNVDAQLYNGFFSDADRAAMKIVLETEPRNLPALDITFVDKRIEKLLFNYRARNFPGTLDYAEQQRWLEHRRQVFTPEFLQGYADELQMLVQQYADDKEKVALLKALWQYAEEIV

Tests used:
EcSSB = EcSSB (Escherichia coli, UniProt P0AGE0 1-178); test: MST
[1] = molecular target: EcSSB and the SSB-IDL fusions; test: ITC

Chain of EcSSB (P0AGE0 whole entry, the tested form may be a part): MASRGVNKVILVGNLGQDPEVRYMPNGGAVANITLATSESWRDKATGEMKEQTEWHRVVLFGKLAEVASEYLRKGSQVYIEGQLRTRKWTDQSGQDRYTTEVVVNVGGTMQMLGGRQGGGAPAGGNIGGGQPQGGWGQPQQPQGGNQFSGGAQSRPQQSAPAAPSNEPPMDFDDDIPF

Binder	Kd (EcSSB) [nM]	Kd [1] [nM]
B1	1.23 ± 0.29	–
B2	–	4460 to 5780

From paper PMC7293020
